# From IntAct's records for PubMed 27314904
# B1: WW domain-binding protein 11 (Homo sapiens), Q9Y2W2 (parent)
# chain: MGRRSTSSTKSGKFMNPTDQARKEARKRELKKNKKQRMMVRAAVLKMKDPKQIIRDMEKLDEMEFNPVQQPQLNEKVLKDKRKKLRETFERILRLYEKENPDIYKELRKLEVEYEQKRAQLSQYFDAVKNAQHVEVESIPLPDMPHAPSNILIQDIPLPGAQPPSILKKTSAYGPPTRAVSILPLLGHGVPRLPPGRKPPGPPPGPPPPQVVQMYGRKVGFALDLPPRRRDEDMLYSPELAQRGHDDDVSSTSEDDGYPEDMDQDKHDDSTDDSDTDKSDGESDGDEFVHRDNGERDNNEEKKSGLSVRFADMPGKSRKKKKNMKELTPLQAMMLRMAGQEIPEEGREVEEFSEDDDEDDSDDSEAEKQSQKQHKEESHSDGTSTASSQQQAPPQSVPPSQIQAPPMPGPPPLGPPPAPPLRPPGPPTGLPPGPPPGAPPFLRPPGMPGLRGPLPRLLPPGPPPGRPPGPPPGPPPGLPPGPPPRGPPPRLPPPAPPGIPPPRPGMMRPPLVPPLGPAPPGLFPPAPLPNPGVLSAPPNLIQRPKADDTSAATIEKKATATISAKPQITNPKAEITRFVPTALRVRRENKGATAAPQRKSEDDSAVPLAKAAPKSGPSVPVSVQTKDDVYEAFMKEMEGLL
# B2: Polyglutamine-binding protein 1 (Homo sapiens), O60828 (parent)
# chain: MPLPVALQTRLAKRGILKHLEPEPEEEIIAEDYDDDPVDYEATRLEGLPPSWYKVFDPSCGLPYYWNADTDLVSWLSPHDPNSVVTKSAKKLRSSNADAEEKLDRSHDKSDRGHDKSDRSHEKLDRGHDKSDRGHDKSDRDRERGYDKVDRERERDRERDRDRGYDKADREEGKERRHHRREELAPYPKSKKAVSRKDEELDPMDPSSYSDAPRGTWSTGLPKRNEAKTGADTTAAGPLFQQRPYPSPGAVLRANAEASRTKQQD
# Variants of: B1
# Conditions: with pqbp1_human PQBP1, O60828
row,effect of a mutation on the interaction,Variant
1,disrupting interaction,P462A;P463A;P464A;G465A

# Variants of: B1
# Conditions: with pqbp1_human PQBP1, O60828
# Remark: another data set of the same source
row,effect of a mutation on the interaction,Variant
1,decreasing interaction,R466A;P467A;P468A;G469A

# Variants of: B1
# Conditions: with pqbp1_human PQBP1, O60828
# Remark: another data set of the same source
row,effect of a mutation on the interaction,Variant
1,decreasing interaction,P459A;P460A;G461A

# Variants of: B1
# Conditions: with pqbp1_human PQBP1, O60828
# Remark: another data set of the same source
row,effect of a mutation on the interaction,Variant
1,decreasing interaction,P455A;R456A;L457A;L458A

# Variants of: B2
# Conditions: with wbp11_human WBP11, Q9Y2W2
row,effect of a mutation on the interaction,Variant
1,disrupting interaction,MPLPVALQTRLAKRGILKHLEPEPEEEIIAEDYDDDPVDYEATRLEGLPPSWYKVFDPSCGLPYYWNADTDLVSALSPHDPNSVVTKSAKKLRSSNADAEEKLDRSHDKSDRGHDKSDRSHEKLDRGHDKSDRGHDKSDRDRERGYDKVDRERERDRERDRDRGYDKADREEGKERRHHRREELAPYPKSKKAVSRKDEELDPMDPSSYSDAPRGTWSTGLPKRNEAKTGADTTAAGPLFQQRPYPSPGAVLRANAEASRTKQQD [W75A]
2,disrupting interaction,MPLPVALQTRLAKRGILKHLEPEPEEEIIAEDYDDDPVDYEATRLEGLPPSWYKVFDPSCGLPYYANADTDLVSWLSPHDPNSVVTKSAKKLRSSNADAEEKLDRSHDKSDRGHDKSDRSHEKLDRGHDKSDRGHDKSDRDRERGYDKVDRERERDRERDRDRGYDKADREEGKERRHHRREELAPYPKSKKAVSRKDEELDPMDPSSYSDAPRGTWSTGLPKRNEAKTGADTTAAGPLFQQRPYPSPGAVLRANAEASRTKQQD [W66A]
3,disrupting interaction,MPLPVALQTRLAKRGILKHLEPEPEEEIIAEDYDDDPVDYEATRLEGLPPSWYKVFDPSCGLPAYWNADTDLVSWLSPHDPNSVVTKSAKKLRSSNADAEEKLDRSHDKSDRGHDKSDRSHEKLDRGHDKSDRGHDKSDRDRERGYDKVDRERERDRERDRDRGYDKADREEGKERRHHRREELAPYPKSKKAVSRKDEELDPMDPSSYSDAPRGTWSTGLPKRNEAKTGADTTAAGPLFQQRPYPSPGAVLRANAEASRTKQQD [Y64A]
4,disrupting interaction,MPLPVALQTRLAKRGILKHLEPEPEEEIIAEDYDDDPVDYEATRLEGLPPSWYKVFDPSCGLPYCWNADTDLVSWLSPHDPNSVVTKSAKKLRSSNADAEEKLDRSHDKSDRGHDKSDRSHEKLDRGHDKSDRGHDKSDRDRERGYDKVDRERERDRERDRDRGYDKADREEGKERRHHRREELAPYPKSKKAVSRKDEELDPMDPSSYSDAPRGTWSTGLPKRNEAKTGADTTAAGPLFQQRPYPSPGAVLRANAEASRTKQQD [Y65C]
5,decreasing interaction,MPLPVALQTRLAKRGILKHLEPEPEEEIIAEDYDDDPVDYEATRLEGLPPSWYKVFDPSCGLPYYWNADTDLASWLSPHDPNSVVTKSAKKLRSSNADAEEKLDRSHDKSDRGHDKSDRSHEKLDRGHDKSDRGHDKSDRDRERGYDKVDRERERDRERDRDRGYDKADREEGKERRHHRREELAPYPKSKKAVSRKDEELDPMDPSSYSDAPRGTWSTGLPKRNEAKTGADTTAAGPLFQQRPYPSPGAVLRANAEASRTKQQD [V73A]
